Results as given in patent publication US20180305452A1.

Legend:
Assay in all cases: flow cytometry, protein L-biotin then streptavidin-PE on LV-transduced human primary T cells
[1] = target: CAR19 construct 1494 (LTG1494): SP-CD19binder-CD8link-CD8tm-signaling
Target sequence (chain, as listed by the source): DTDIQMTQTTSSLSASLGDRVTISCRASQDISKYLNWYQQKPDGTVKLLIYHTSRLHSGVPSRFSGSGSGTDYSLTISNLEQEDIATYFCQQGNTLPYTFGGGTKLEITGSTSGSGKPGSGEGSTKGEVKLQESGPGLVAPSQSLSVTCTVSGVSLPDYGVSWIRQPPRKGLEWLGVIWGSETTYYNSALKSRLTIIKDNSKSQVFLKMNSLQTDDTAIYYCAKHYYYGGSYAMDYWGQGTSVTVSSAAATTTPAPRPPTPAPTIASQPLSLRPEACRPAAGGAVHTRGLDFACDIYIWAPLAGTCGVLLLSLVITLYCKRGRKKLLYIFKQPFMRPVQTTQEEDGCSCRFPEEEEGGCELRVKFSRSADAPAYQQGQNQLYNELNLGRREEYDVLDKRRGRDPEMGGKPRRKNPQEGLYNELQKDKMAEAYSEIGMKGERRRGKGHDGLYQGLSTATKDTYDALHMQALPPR

[2] = target: CAR19 construct 1712 (LTG1712): SP-CD19binder-TNFRSF16link-TNFRSF16tm-signaling
Target sequence (chain, as listed by the source): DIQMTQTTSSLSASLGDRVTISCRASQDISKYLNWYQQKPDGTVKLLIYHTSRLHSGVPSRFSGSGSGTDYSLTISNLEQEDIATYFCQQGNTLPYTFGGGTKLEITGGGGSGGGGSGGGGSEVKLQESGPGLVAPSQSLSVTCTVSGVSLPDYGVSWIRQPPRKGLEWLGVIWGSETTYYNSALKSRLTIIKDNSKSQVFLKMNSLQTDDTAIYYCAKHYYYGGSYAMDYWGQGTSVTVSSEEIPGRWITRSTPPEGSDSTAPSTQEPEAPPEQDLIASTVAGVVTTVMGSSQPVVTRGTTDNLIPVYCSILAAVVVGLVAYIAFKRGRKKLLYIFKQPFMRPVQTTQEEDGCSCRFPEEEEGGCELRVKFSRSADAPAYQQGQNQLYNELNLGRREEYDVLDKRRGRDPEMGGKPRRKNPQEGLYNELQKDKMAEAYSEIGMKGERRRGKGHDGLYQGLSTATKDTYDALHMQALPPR

[3] = target: CAR19 construct 1713 (LTG1713): SP-CD19binder-Truncated TNFRSF19link-TNFRSF19tm-signaling
Target sequence (chain, as listed by the source): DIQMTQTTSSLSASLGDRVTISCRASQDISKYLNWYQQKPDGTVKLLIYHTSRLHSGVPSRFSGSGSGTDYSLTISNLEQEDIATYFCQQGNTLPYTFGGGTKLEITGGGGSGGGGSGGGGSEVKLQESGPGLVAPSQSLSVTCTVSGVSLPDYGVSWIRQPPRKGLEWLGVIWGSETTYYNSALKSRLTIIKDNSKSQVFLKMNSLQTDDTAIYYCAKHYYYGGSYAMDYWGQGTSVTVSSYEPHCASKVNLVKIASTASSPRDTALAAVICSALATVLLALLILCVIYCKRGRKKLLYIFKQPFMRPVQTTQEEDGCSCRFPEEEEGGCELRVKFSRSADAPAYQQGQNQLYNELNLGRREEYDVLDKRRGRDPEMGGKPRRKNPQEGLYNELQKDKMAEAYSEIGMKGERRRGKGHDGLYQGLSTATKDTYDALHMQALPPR

percentage CAR on T cell surface (cells stained) [1]: 90.4%
percentage CAR on T cell surface (cells stained) [2]: 86.4%
percentage CAR on T cell surface (cells stained) [3]: 0.3%
Substance: protein L-biotin conjugate
